Residue numbers refer to the chain shown, from its start.

For experiment [1], the target named is Arabidopsis NPR1 protein (Arabidopsis) (UniProt P93002). Description: cell-based or functional assay.
The target in a further experiment is T1, Arabidopsis NPR1 protein (Arabidopsis, UniProt P93002 1-593, limits assumed).
T1 construct: In the plant experiments it is the endogenous NPR1; also called NIM1; SAI1
T1 sequence (looked up): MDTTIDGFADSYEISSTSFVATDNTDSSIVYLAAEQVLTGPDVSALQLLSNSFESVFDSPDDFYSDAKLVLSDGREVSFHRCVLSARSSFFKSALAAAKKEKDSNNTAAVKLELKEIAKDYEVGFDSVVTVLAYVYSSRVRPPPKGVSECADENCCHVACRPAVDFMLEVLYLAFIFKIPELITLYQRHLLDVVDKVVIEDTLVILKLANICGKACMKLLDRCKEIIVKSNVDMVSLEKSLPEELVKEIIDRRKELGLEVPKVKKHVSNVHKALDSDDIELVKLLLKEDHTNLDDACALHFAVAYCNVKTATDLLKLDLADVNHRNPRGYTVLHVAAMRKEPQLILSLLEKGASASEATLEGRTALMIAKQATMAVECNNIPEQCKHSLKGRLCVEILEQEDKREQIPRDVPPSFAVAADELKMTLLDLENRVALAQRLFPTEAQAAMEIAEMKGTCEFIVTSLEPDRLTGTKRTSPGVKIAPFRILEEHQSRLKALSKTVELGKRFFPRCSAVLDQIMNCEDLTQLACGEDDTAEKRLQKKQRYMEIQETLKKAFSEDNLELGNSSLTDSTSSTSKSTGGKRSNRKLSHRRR
Description: interaction assay (yeast), summary of the examples.

Turning to “NIAD fusion protein (N-terminal first 52 amino acids of NRR fused to a VP16 activation domain) (from UniProt P06492 413-490)”, in experiment [1], the GUS activity from the BG2-Gus reporter after 0.1 mM INA induction (transgenic Arabidopsis line NIAD-22, repeat assay) was 2 fold over WT and the Pst DC3000 bacterial populations at day 4, wild type relative to the NIAD lines lay in the range of 4 to 5 fold.

B1: rice NRR (Negative Regulator of disease Resistance) protein, wild type (other)
chain: MDATTTDATTAKRKRPAASDIADDAPTTVDEVSDAEVEEFYAILRRMRDATRRLGARPPPPRAPAWRPSFSWEDFADAPPKQAPPPPQQPADHERVAENATPPRRPAPGLDLNVEPPSDAPATPRSARAPA
notes: also called wild type NRR
Regarding B1, in the experiment with Arabidopsis NPR1 protein, the binding result is recorded as “binds”.

B2: NRR single point mutant E39K (other)
chain: B1 chain with E39K
notes: also called EK
B2: the binding result in the experiment with Arabidopsis NPR1 protein is “binds”.

Values taken from patent US20100037349A1 (University of California, published 2010).
